Target: AP1 expressed in planta (35S::AP1 transgene, or ectopically activated in the tfl mutant) (Arabidopsis thaliana) (UniProt P35631)
Experiment: cell-based or functional assay

Sequence of AP1 expressed in planta (35S::AP1 transgene, or ectopically activated in the tfl mutant) (Arabidopsis thaliana) (P35631 whole entry, change not shown): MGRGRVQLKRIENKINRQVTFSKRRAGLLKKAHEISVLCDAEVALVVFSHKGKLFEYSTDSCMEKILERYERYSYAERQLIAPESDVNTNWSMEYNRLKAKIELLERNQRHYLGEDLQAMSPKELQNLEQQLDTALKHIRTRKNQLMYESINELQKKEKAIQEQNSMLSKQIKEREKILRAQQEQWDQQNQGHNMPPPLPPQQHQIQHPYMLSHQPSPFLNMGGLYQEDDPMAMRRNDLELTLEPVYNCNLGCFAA

rosette leaves formed before flowering, tfl mutation in combination with the 35S::SEP3 transgene (rosette leaves): 2
rosette leaves produced before flowering, 35S::AP1 35S::SEP3 doubly transgenic plants (rosette leaves): 2
Substance: SEP3 expressed from the 35S::SEP3 transgene in Arabidopsis (from UniProt O22456 1-251)
